The values below come from patent US20220064329A1 (Novo Nordisk, published 2022).

Common to all, as to test: SPR, Biacore T200, 25 C; FVII(a) variant captured on anti-Gla Ab 4F6, mAb0842(OA) injected
One assay concerns the target T1, FVII(a) variant I186A (human, UniProt P08709 61-466).
T1 construct: hFVII alanine variant in cell culture supernatant
T1 sequence: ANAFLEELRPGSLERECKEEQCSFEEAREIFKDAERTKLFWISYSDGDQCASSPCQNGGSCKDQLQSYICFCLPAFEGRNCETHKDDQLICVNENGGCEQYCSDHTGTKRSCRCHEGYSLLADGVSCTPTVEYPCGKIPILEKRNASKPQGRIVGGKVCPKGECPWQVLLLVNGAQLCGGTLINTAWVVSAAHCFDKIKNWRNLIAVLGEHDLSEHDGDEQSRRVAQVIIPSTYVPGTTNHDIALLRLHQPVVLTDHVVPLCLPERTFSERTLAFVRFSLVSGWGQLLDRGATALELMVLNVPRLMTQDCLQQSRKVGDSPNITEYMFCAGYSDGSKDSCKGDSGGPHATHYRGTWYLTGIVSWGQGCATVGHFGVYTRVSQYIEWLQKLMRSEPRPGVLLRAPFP

For a further assay, the target named is T2, FVII(a) variant S119A (human, UniProt P08709 61-466).
T2 construct: hFVII alanine variant in cell culture supernatant
T2 sequence: T1 sequence with S119A, A186I

For a further assay, the target named is T3, FVII(a) variant Y118A (human, UniProt P08709 61-466).
T3 construct: hFVII alanine variant in cell culture supernatant
T3 sequence: T1 sequence with Y118A, A186I

A further assay has as its target T4, FVII(a) variant T130A (human, UniProt P08709 61-466).
T4 construct: hFVII alanine variant in cell culture supernatant
T4 sequence: T1 sequence with T130A, A186I

A further assay deals with T5, FVII(a) variant V131A (human, UniProt P08709 61-466).
T5 construct: hFVII alanine variant in cell culture supernatant
T5 sequence: T1 sequence with V131A, A186I

Changes are numbered by the printed parent chain.

B1: mAb0842(OA) (antibody, human IgG4 S228P, kappa)
heavy: QVQLQESGPGLVKPSQTLSLTCTVSGYSISSDSAWSWIRQPPGKGLEWIGYIQYSGSTNYNPSLKSRVTISRDTSKNQFSLKLSSVTAADTAVYYCARSVNYYGNSFAVGYWGQGTLVTVSSASTKGPSVFPLAPCSRSTSESTAALGCLVKDYFPEPVTVSWNSGALTSGVHTFPAVLQSSGLYSLSSVVTVPSSSLGTKTYTCNVDHKPSNTKVDKRVESKYGPPCPPCPAPEFLGGPSVFLFPPKPKDTLMISRTPEVTCVVVDVSQEDPEVQFNWYVDGVEVHNAKTKPREEQFNSTYRVVSVLTVLHQDWLNGKEYKCKVSNKGLPSSIEKTISKAKGQPREPQVYTLPPSQEEMTKNQVSLSCAVKGFYPSDIAVEWESNGQPENNYKTTPPVLDSDGSFFLVSRLTVDKSRWQEGNVFSCSVMHEALHNHYTQKSLSLSLGK
light: EIVLTQSPATLSLSPGERATLSCRASQGISDYLHWYQQKPGEAPRLLIKYTSQPATGIPARFSGSGSGTDFTLTISSLEPEDFAVYYCQNGHSFPLTFGQGTKLEIKRTVAAPSVFIFPPSDEQLKSGTASVVCLLNNFYPREAKVQWKVDNALQSGNSQESVTEQDSKDSTYSLSSTLTLSKADYEKHKVYACEVTHQGLSSPVTKSFNRGEC
chain: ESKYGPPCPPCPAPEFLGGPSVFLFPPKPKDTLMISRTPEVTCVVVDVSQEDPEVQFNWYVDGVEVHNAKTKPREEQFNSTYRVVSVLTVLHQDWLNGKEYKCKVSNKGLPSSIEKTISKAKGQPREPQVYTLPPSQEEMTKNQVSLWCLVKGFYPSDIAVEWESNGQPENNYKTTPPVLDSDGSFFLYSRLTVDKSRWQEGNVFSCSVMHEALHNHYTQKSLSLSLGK
notes: also called monovalent humanized 11F2 antibody; one-armed anti-FVII(a) antibody
The term Kd denotes the free concentration of one partner at which half of the binding sites on the other are occupied at equilibrium, for simple one-to-one binding. Low values mean a tighter complex, high ones a looser complex. As to B1, the Kd amounted to 0.39 nM with FVII(a) variant I186A; 0.31 nM with FVII(a) variant S119A; 1.48 nM with FVII(a) variant Y118A; 32.1 nM with FVII(a) variant T130A; 5.22 nM with FVII(a) variant V131A.
